According to the RNAGym collection of RNA variant scans (doi:10.1073/pnas.2313332121):

B1: TPR t1 (parent)
chain: GACCAAUCUGCCCUCAGAGCUCGAGAACAUCUUCGGAUGCAGAGGAGGCAGGCUUCGGUGGCGCGAUAGCGCCAACGUCCUCAACCUCCAAUGCAUCCCACCACAUGAUGAUGCCUGAAGAGCCUUGGUUUUUUG

Variants of: B1
Experiment: polymerase ribozyme fitness, log enrichment relative to wild type (log ratio); higher = more active; in vitro selection for triplet polymerase activity
Method in brief: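 Streptavidin-bead capture of gel-excised extended constructs, followed by RT-PCR, closed a single triplicate in vitro selection round. That round began by annealing PCR-built, transcribed mutant libraries of each subunit of a heterodimeric triplet polymerase ribozyme with a biotinylated primer, the partner subunit and triplets, then incubating them frozen at −7 °C. After Illumina sequencing of inputs and outputs, genotypes needed ≥10 input reads and ≥1 read per output. Fitness is the base-2 logarithm of genotype enrichment over wild-type enrichment, using inverse-variance-weighted replicate averages.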

Variant | polymerase ribozyme fitness (log ratio)
C40U G42A C56U C80U G120U U132C | -3.64
C40U C76G G120C | 0.524
C40U G63C A74C U131A | -2.75
A41C C114A | -2.37
C40U C72G G117U U130A | -4.89
C40U G47A G48C G93A G122A | -1.34
A41C C124G | 0.528
C40U U55C C70U | -1.45
A41C C73G | -1.33
C40U G113C | -2.55
C40U G52U C88U | -1.18
C40U G52C G93A | -1.38
C40U C70G C98U A119U | -3.66
C40U C79A C101U | -2.1
A41C C82U C94G C97U | -6.09
C40U C70A C102A C124A | -3.93
C40U C49A A50G C62U A105G | -4.71
A41C C64G | -6.49
C40U C53U A66G | -1.67
A41C A46U C70U | -3.44
C40U C53U U78C U92A G93A A111C | -4.45
C40U C97U C102A A111G | -2.88
C40U G60U | -0.21
C40U C56A C82G C97U C115U U132C | -4.39

Variant | polymerase ribozyme fitness (log ratio)
C40U C49A C73U C98G | -6.1
C40U A74G C79G | -2.36
C40U G93A U96G | -0.786
C40U U131A | -0.601
C40U C73G | -0.891
C40U C53A C73A C104U C123G | 1.24
A41C G44A G58C G93C | -1.87
A41C C89A G93U C101U G113U | -6.26
C40U G69C G93A U96G | -2.24
C40U G48U C62G | -3.32
A41C G61A G127A | -1.68
A41C G57C A90G C97A | -4.54
C40U G47C U116G U132C | -4.13
C40U C56A A91G | -2.75
C40U G47C C53U | -3.49
C40U G110U | -2.35
C40U C64U C85U A100G U106C U112C | -2.44
C40U A90C U132A | -1.85
C40U A84U G117U C123G | -1.94
C40U C56A C73U C82G C97U C115U | -4.44
A41C C73A C86G C104A | -4.53
A41C C56U | -0.143
A41C C56G | -4.05
A41C C56U C114A A121G | -1.11

Variant | polymerase ribozyme fitness (log ratio)
A41C C70A U81A U92C | -5.78
C40U C62U C85G | -2.44
C40U G60A A95U G117C A121C | -6.15
C40U A74G | -0.128
C40U G45A U78G U81A | -2.5
C40U C88A C101A A121U | -0.199
C40U G45U U55A C73U | -1.76
C40U C82U A84G G107U | -6.74
C40U U112A U116C | -1.95
C40U C98G | -6.34
C40U G57U | -0.292
C40U C73U C80U G117U | -4.15
C40U C85A U129G U132C | -5.2
C40U C98A A121C | -4.03
C40U C101A U112C | 0.157
C40U A84C | -0.985
A41C C82U G120A | 0.0706
A41C G48U G61C U92A | -5.63
C40U G57A C85A U112A G122C C123A | -1.77
C40U C72A C82G C102A G120A G122U | -3.11
C40U C53G A75G G117A | -2.56
C40U G63C | -0.94
C40U G48U G52A A121U | -0.327
C40U C85A G113C | -3.42

Variant | polymerase ribozyme fitness (log ratio)
C40U G69C C85U A100G U106C U112C | -4.82
C40U G57C G58A U116G | -3.95
A41C C104G G107U G110U | -7.15
C40U A95C | -1.45
C40U G69C | -1.61
C40U G57U C79A | -1.3
A41C C80U | -1.79
C40U G63C C115A G135U | -1.95
C40U C53A C73A C104U | 0.971
C40U C94U G128U | -4.33
C40U C62G G110U | -4.6
C40U G61C C72U C88A | -1.95
A41C C104A G122A | -3.8
C40U C70U | -0.997
C40U C56G C88G G93A | -2.89
C40U G42U | -1.7
C40U G42C | -2.23
C40U C73U G113A | -1.98
C40U C56G A84C C88A U109A | -7.02
A41C C82A A111C | -2.14
A41C G52C C73G | -2.96
C40U G44U U78A C89A A111C G117A G135C | -3.17
A41C C99U | -5.06
A41C G52A A74U C88U | -2.04

Variant | polymerase ribozyme fitness (log ratio)
C40U G42A G122U C123A | -1.77
C40U G61A U78C | -0.104
C40U C62U C73G C85G | -5.15
C40U C97A | -5.23
A41C G51U | -3.29
C40U C53A G60A G69U | -0.0565
C40U G47C G58A G117A | -4.37
C40U C72U U116G G120C G128U | -4.53
C40U G44A | -0.755
C40U G71C | -1.58
C40U C85A G120C | -0.223
A41C C98U G117A | -5.3
C40U G69A C99A C114G | -8.02
C40U C49A C89G | -2.46
A41C C123A G128U | -2.19
C40U G42C C53A C104A | -4.78
C40U G61C U129A | -3.93
C40U A74G C88U G120A A121C | -0.0609
C40U C73A C101U | -0.192
C40U C49A C79U G113U U125C | -4.03
C40U C53U A121G | 1.58
C40U C56A | -0.555
C40U A83C | -0.818
A41C A90G | -0.105

Variant | polymerase ribozyme fitness (log ratio)
C40U G60C U96G A118G | -1.31
C40U G120A | 0.164
C40U G120U | -0.132
C40U U55C C70A U96A | -3.02
C40U C76U | -0.869
A41C G45U G69U C124A U126G | -1.04
A41C G48A G60U G135U | -2.21
C40U G45U | -2.01
C40U G45A | -1.41
C40U A90G C123U | 1.26
C40U U67C G71U C89U U109A G117C A121U G128A U134A | -5.54
C40U G60U C94A C101G U106A | -1.22
C40U G113U U129C | -3.58
C40U G107U | -6.46
C40U U55C | -0.711
C40U C62G A111G | -2.32
A41C G58A | -0.278
C40U G61A | -0.522
C40U G61C | -2.59
C40U U112C | 1.25
C40U U112G | 0.138
C40U U112A | 0.76
C40U C88A U106C | -1.06
A41C G47C C49U C86A | -2.65

Variant | polymerase ribozyme fitness (log ratio)
C40U C101U C124A | 1.16
C40U G52A C53U C124A | 0.594
C40U C62A | -1.61
C40U G117U | -1.71
C40U G63A C102G C114G G122A | -8.78
C40U C115U U125G U133C | -0.584
C40U G57U G120C | 0.687
A41C A83U | -1.29
A41C C98U | -2.48
A41C C85U | -2.37
C40U G47U U109A U129G | -7.79
C40U G61C U126G | -4.04
A41C C86A U106A | -1.11
C40U G61U G71A C99U G120A | -6.74
C40U C53U C72A C97U | -0.251
C40U G45C C49U G63U A83U C124G | -6.14
C40U C56U U78C C89G | -2.2
C40U C73U G93U U130G | -2.36
C40U G63C C80U | -1.53
C40U G44A C62U | -1.32
C40U G48U C79A C124U | -3.57
C40U G63C A121C | 0.618
C40U A118G | -1.24
